Ends that are not written are not given here. * marks the point of attachment. FITC = O=C1OC2(c3ccc(O)cc3Oc3cc(O)ccc32)c2ccc(NC(=S)*)cc21

Test in all cases: fluorescence polarisation; fluorescein-labelled pol β NLS peptide against the concentration of the Impα construct; apparent dissociation constants; as in ref. 56
Details in all cases: both partners purified
(In general: In fluorescence polarisation assays a small probe gives low polarisation when free and higher when bound to something large.)

For assay [1], the target named is T1, murine Importin α1 with the Importin β binding domain deleted (mImpα1ΔIBB) (mouse, UniProt P52293 70-529).
Assay [2] addresses T2, full-length murine Importin α1 (mImpα1) (mouse, UniProt P52293 1-529).
The target of assay [3] is T1, murine Importin α1 with the Importin β …. The source holds these as a separate data set.
Assay [4] deals with T2, full-length murine Importin α1 (mImpα1). The source holds these as a separate data set.
Assay [5] has as its target human Importin α5, residues 66–512 (hImpα5ΔIBB) (human, UniProt P52294 66-512).

Sequence of human Importin α5, residues 66–512 (hImpα5ΔIBB) (P52294 66-512, stated change not applied): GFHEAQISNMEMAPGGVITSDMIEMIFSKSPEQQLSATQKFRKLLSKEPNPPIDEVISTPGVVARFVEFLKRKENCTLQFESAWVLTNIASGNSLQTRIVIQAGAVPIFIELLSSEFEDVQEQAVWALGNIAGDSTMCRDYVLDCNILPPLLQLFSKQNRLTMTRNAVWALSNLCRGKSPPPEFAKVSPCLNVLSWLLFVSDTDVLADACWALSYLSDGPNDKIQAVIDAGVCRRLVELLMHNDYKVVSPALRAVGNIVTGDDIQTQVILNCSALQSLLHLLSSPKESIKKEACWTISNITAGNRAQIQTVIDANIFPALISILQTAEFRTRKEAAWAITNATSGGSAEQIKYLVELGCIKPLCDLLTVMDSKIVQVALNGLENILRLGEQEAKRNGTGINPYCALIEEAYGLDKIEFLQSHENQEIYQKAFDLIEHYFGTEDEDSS

As for SKRKAPQETLNGGK(FITC) [fluorescein-labeled pol β NLS peptide SKRKAPQETLNGG-Lys(FITC)], the Kd in assay [1] amounted to 2 µM; in assay [2], 54.3 µM; in assay [3], 3.6 ± 0.4 µM; in assay [4], 61.8 ± 1.7 µM; in assay [5], 0.72 ± 0.03 µM.

Source of the values: article PMC5389473 (Nucleic Acids Research, 2016).
